We go through 2 molecules from PMC11117632, “Rapid and Sensitive Detection of Inactivated SARS-CoV-2 Virus via Fiber-Optic and Electrochemical Impedance Spectroscopy Based Aptasensors”.

The data set deals with SARS-CoV-2 spike protein (SARS-CoV-2, UniProt P0DTC2 14-1213). The data set can be described thus: ELONA; binding buffer 50 mM HEPES pH 7.4, 100 mM NaCl, 5 mM KCl, 2 mM MgCl2, 1 mM CaCl2; […]. The settings on record: protein: recombinant, chain copies: 3, label: biotin.

B1: aptamer 6.9 (ssDNA)
DNA: GCAATGGTACGGTACTTCCATGGCTGGTGCTTGAGGTGTGTGTGGGGGTAGGGCCAAAAGTGCACGCTACTTTGCTAA
Take B1: the binding result is reported as “no binding”.

B2: aptamer 6.8 (ssDNA)
DNA: GCAATGGTACGGTACTTCCCGGGGCGGGCTGTCATGCCCATCCTACCGTGACCGCAAAAGTGCACGCTACTTTGCTAA
Turning to B2, where the note is “predicted partial stem-loops”, the binding result is recorded as “no binding”.
